Reference: patent publication US20040096950

Tests used:
[1] = biological target: BACE N->Q R56KR57K
[2] = biological target: BACE N->Q R56KR57K no His
[3] = biological target: BACE WT R56KR57K
[4] = biological target: OM 99

Protein | Cleavage position (ESI-TOF-MS), final fragment, observed parent mass 46655 [1] | Cleavage position (ESI-TOF-MS), first intermediate fragment at 30-60 minutes post activation, observed parent mass 45838.30 [2] | Cleavage position (ESI-TOF-MS), fragment formed on digestion beyond 60 minutes, observed parent mass 44228.03 [2] | Cleavage position (ESI-TOF-MS), final fragment, observed parent mass 45783 [3] | Cleavage position (ESI-TOF-MS), first intermediate fragment [3] | activity (fluorimetric assay with the fluorescent peptide R-E(EDANS)-E-V-N-L-*D-A-E-F-K(DABCYL)-R-OH as substrate) [4]
Clostripain (Cp; EC 3.4.22.8, from Worthington or Sigma C7403) (protein) NKNQKVTIMYYCDADNNLEGSLLNDIEEMKTGYKDSPNLNLIALVDRSPRYSSDEKVLGEDFSDTRLYKIEHNKANRLDGKNEFPEISTTSKYEANMGDPEVLKKFIDYCKSNYEADKYVLIMANHGGGAREKSNPRLNRAICWDDSNLDKNGEADCLYMGEISDHLTEKQSVDLLAFDACLMGTAEVAYQYRPGNGGFSADTLVASSPVVWGPGFKYDKIFDRIKAGGGTNNEDDLTLGGKEQNFDPATITNEQLGALFVEEQRDSTHANGRYDQHLSFYDLKKAESVKRAIDNLAVNLSNENKKSEIEKLRGSGIHTDLMHYFDEYSEGEWVEYPYFDVYDLCEKINKSENFSSKTKDLASNAMNKLNEMIVYSFGDPSNNFKEGKNGLSIFLPNGDKKYSTYYTSTKIPHWTMQSWYNSIDTVKYGLNPYGKLSWCKDGQDPEINKVGNWFELLDSWFDKTNDVTGGVNHYQW | MASMTGGQQMGRGSMAGVLPAHGTQHGIRLPLRSGLGGAPLGLR↓ | MASMTGGQQMGRGSMAGVLPAHGTQHGIRLPLRSGLGGAPLGLR ↓ | EEPEEPGK ↓ KGSFVEMV . . . | MASMTGGQQMGRGSMAGVLPAHGTQHGIRLPLRSGLGGAPLGLR↓ | MASMTGGQQMGR⇓GSMAGVLPAHGT . . . | 
BACE enzyme (refolded recombinant BACE as used in the fluorimetric activity assay) (protein) LPRETDEEPEEPGRRGSFVEMVDNLRGKSGQGYYVEMTVGSPPQTLNILVDTGSSNFAVGAAPHPFLHRYYQRQLSSTYRDLRKGVYVPYTQGKWEGELGTDLVSIPHGPNVTVRANIAAITESDKFFINGSNWEGILGLAYAEIARPDDSLEPFFDSLVKQTHVPNLFSLQLCGAGFPLNQSEVLASVGGSMIIGGIDHSLYTGSLWYTPIRREWYYEVIIVRVEINGQDLKMDCKEYNYDKSIVDSGTTNLRLPKKVFEAAVKSIKAASSTEKFPDGFWLGEQLVCWQAGTTPWNIFPVISLYLMGEVTNQSFRITILPQQYLRPVEDVATSQDDCYKFAISQSSTGTVMGAVIMEGFYVVFDRARKRIGFAVSACHVHDEFRTAAVEGPFVTLDMEDCGYNIPQTDES |  |  |  |  |  | 1 mM OM 99 completely inhibits activity.
